Results published in publication PMC8472245.

biological target: FLAG-tagged KSHV ORF33 (Kaposi sarcoma-associated herpesvirus (KSHV)); test: not given; details: not given
Sequence (F5HEF2 whole entry): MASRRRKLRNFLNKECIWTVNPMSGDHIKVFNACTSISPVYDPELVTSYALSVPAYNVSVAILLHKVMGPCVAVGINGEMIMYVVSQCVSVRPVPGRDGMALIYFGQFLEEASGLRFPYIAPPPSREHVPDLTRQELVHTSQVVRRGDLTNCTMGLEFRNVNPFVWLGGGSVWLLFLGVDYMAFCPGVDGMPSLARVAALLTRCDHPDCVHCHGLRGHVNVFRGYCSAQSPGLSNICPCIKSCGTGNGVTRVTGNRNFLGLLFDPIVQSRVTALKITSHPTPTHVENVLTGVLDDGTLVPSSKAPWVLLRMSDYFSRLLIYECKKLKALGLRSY

For “TAT-C19 peptide (from UniProt F5HDE4 389-407)”, the yield of extracellular KSHV genomes (qPCR) from induced iSLK.BAC16 cells treated with the peptide, up to 200 uM, 5 days; the peptide blocks ORF45-ORF33 was 34.1 µM.

biological target: FLAG-tagged KSHV ORF33; test: ELISA; details: parent: est. 0.68; read off a plot

Point of comparison: “GST-tagged KSHV ORF45-C19 (from UniProt F5HDE4) L395A”, response 0.21 Absorbance. Against it:
- GST-tagged KSHV ORF45-C19 (from UniProt F5HDE4) P394A — lower, 0.058 Absorbance
- GST-tagged KSHV ORF45-C19 (from UniProt F5HDE4) W405A — lower, 0.058 Absorbance
- GST-tagged KSHV ORF45-C19 (from UniProt F5HDE4) P393A — higher, 0.42 Absorbance
- GST-tagged KSHV ORF45-C19 (from UniProt F5HDE4) P404A — lower, 0.09 Absorbance
- GST-tagged KSHV ORF45-C19 (from UniProt F5HDE4) L406A — higher, 0.44 Absorbance
- GST-tagged KSHV ORF45-C19 (from UniProt F5HDE4) D407A — higher, 0.69 Absorbance
- GST-tagged KSHV ORF45-C19 (from UniProt F5HDE4) C396A — lower, 0.058 Absorbance
- GST-tagged KSHV ORF45-C19 (from UniProt F5HDE4) G397A — lower, 0.19 Absorbance
- GST-tagged KSHV ORF45-C19 (from UniProt F5HDE4) W403A — lower, 0.07 Absorbance
- GST-tagged KSHV ORF45-C19 (from UniProt F5HDE4) N402A — higher, 0.69 Absorbance
- GST-tagged KSHV ORF45-C19 (from UniProt F5HDE4) T392A — lower, 0.085 Absorbance
- GST-tagged KSHV ORF45-C19 (from UniProt F5HDE4) Y401A — lower, 0.058 Absorbance
